From publication PMC5415871 (Biochemistry, 2017)

Tests used:
[1] = target: type 2α regulatory subunit of PKA (RIIα), full length (rat, UniProt P12368 1-401); experiment: fluorescence polarisation
[2] = target: type 2β regulatory subunit of PKA (RIIβ), full length (rat, UniProt P12369 1-416); experiment: fluorescence polarisation
Sequence of type 2β regulatory subunit of PKA (RIIβ), full length (P12369 whole entry): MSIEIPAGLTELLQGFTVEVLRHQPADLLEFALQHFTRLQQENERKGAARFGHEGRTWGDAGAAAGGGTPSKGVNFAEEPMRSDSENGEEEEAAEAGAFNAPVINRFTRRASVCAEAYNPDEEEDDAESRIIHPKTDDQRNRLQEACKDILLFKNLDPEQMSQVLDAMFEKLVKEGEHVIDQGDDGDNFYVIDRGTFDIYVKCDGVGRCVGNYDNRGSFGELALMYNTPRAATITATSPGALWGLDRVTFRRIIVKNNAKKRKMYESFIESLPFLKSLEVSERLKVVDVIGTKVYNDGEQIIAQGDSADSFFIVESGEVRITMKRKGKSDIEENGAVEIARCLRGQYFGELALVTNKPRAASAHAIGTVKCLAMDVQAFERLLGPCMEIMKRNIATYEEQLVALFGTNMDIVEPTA

Sequence of type 2α regulatory subunit of PKA (RIIα), full length (P12368 whole entry): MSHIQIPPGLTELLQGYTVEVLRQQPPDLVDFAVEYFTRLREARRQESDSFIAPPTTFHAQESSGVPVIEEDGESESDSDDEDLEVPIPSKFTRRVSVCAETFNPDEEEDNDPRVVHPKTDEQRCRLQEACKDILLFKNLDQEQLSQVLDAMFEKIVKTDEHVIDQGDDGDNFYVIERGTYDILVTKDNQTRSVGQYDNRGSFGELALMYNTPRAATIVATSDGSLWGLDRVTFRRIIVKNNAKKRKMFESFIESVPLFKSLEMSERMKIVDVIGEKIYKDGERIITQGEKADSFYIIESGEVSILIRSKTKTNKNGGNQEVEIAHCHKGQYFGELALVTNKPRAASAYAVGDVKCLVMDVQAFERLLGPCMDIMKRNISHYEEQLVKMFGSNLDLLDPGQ

Kd [1]: 990 nM
Kd [2]: 2160 nM
B1: S100A1 (natural protein)
chain: GSELETAMETLINVFHAHSGKEGDKYKLSKKELKELLQTELSGFLDAQKDVDAVDKVMKELDENGDGEVDFQEYVVLVAALTVACNNFFWENS
